Test results as given in article PMC10519446.

These proteins were tested on Nc1ncnc2c1ncn2[C@@H]1O[C@H](COP(=O)(O)OP(=O)(O)OP(=O)(O)O)[C@@H](O)[C@H]1O (assay: purified protein). Conditions: co-substrate N-acetylmannosamine.

Protein	Km	kcat [s⁻¹]
NanK (N-acetylmannosamine kinase) (Escherichia coli K-12) (protein) MTTLAIDIGGTKLAAALIGADGQIRDRRELPTPASQTPEALRDALSALVSPLQAHAQRVAIASTGIIRDGSLLALNPHNLGGLLHFPLVKTLEQLTNLPTIAINDAQAAAWAEFQALDGDITDMVFITVSTGVGGGVVSGCKLLTGPGGLAGHIGHTLADPHGPVCGCGRTGCVEAIASGRGIAAAAQGELAGADAKTIFTRAGQGDEQAQQLIHRSARTLARLIADIKATTDCQCVVVGGSVGLAEGYLALVETYLAQEPAAFHVDLLAAHYRHDAGLLGAALLAQGEKL	(1.4 ± 0.2)×10^−4 M	29 ± 0.5
NanK (N-acetylmannosamine kinase) (Escherichia coli K-12; L84P) (protein) MTTLAIDIGGTKLAAALIGADGQIRDRRELPTPASQTPEALRDALSALVSPLQAHAQRVAIASTGIIRDGSLLALNPHNLGGLPHFPLVKTLEQLTNLPTIAINDAQAAAWAEFQALDGDITDMVFITVSTGVGGGVVSGCKLLTGPGGLAGHIGHTLADPHGPVCGCGRTGCVEAIASGRGIAAAAQGELAGADAKTIFTRAGQGDEQAQQLIHRSARTLARLIADIKATTDCQCVVVGGSVGLAEGYLALVETYLAQEPAAFHVDLLAAHYRHDAGLLGAALLAQGEKL	(1.4 ± 0.3)×10^−4 M	13 ± 0.2
NanK (N-acetylmannosamine kinase) (Escherichia coli K-12; L84R) (protein) MTTLAIDIGGTKLAAALIGADGQIRDRRELPTPASQTPEALRDALSALVSPLQAHAQRVAIASTGIIRDGSLLALNPHNLGGLRHFPLVKTLEQLTNLPTIAINDAQAAAWAEFQALDGDITDMVFITVSTGVGGGVVSGCKLLTGPGGLAGHIGHTLADPHGPVCGCGRTGCVEAIASGRGIAAAAQGELAGADAKTIFTRAGQGDEQAQQLIHRSARTLARLIADIKATTDCQCVVVGGSVGLAEGYLALVETYLAQEPAAFHVDLLAAHYRHDAGLLGAALLAQGEKL	(8.3 ± 1.4)×10^−5 M	17 ± 0.3
